Test results published in patent US20040180405A1 (NEUROSEARCH A S, published 2004).
Numbering of substitutions follows the chain as printed.

Key:
Experiment in all cases: cell-based or functional assay
[1] = target: T1, KCNQ3 potassium channel subunit (human, UniProt O43525 1-872)
T1 sequence (looked up): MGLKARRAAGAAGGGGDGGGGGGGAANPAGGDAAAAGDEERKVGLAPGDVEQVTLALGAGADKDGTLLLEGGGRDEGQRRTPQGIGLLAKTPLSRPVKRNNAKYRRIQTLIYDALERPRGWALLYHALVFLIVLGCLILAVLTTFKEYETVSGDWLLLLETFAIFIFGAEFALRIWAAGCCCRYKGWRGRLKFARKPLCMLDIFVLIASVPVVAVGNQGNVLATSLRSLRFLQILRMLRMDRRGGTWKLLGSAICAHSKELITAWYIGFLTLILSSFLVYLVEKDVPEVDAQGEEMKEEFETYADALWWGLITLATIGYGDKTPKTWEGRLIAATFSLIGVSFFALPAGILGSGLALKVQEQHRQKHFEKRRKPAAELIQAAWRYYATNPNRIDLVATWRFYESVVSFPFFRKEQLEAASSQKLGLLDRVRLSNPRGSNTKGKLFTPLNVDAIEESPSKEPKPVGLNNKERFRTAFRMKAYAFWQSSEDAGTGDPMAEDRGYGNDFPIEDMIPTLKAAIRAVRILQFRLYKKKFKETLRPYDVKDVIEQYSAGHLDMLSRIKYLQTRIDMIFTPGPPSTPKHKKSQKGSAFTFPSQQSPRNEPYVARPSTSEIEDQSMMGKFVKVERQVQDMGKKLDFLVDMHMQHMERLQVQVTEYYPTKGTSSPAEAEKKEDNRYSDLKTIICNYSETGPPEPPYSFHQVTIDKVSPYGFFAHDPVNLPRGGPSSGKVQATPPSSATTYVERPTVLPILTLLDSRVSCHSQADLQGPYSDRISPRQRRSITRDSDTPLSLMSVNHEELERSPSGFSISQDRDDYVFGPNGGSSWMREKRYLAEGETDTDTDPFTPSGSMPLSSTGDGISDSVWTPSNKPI

[2] = target: T2, KCNQ3(G318S) dominant negative mutant (human, UniProt O43525 1-872)
T2 sequence (looked up): T1 sequence (looked up) with G318S

[3] = target: T3, KCNQ3 (T323Y) mutant (human, UniProt O43525 1-872)
T3 sequence (looked up): T1 sequence (looked up) with T323Y

B1: KCNQ5 potassium channel subunit (other)
chain: MKDVESGRGRVLLNSAAARGDGLLLLGTRAATLGGGGGGLRESRRGKQGARMSLLGKPLSYTSSQSCRRNVKYRRVQNYLYNVLERPRGWAFIYHAFVFLLVFGCLILSVFSTIPEHTKLASSCLLILEFVMIVVFGLEFIIRIWSAGCCCRYRGWQGRLRFARKPFCVIDTIVLIASIAVVSAKTQGNIFATSALRSLRFLQILRMVRMDRRGGTWKLLGSVVYAHSKELITAWYIGFLVLIFSSFLVYLVEKDANKEFSTYADALWWGTITLTTIGYGDKTPLTWLGRLLSAGFALLGISFFALPAGILGSGFALKVQEQHRQKHFEKRRNPAANLIQCVWRSYAADEKSVSIATWKPHLKALHTCSPTKKEQGEASSSQKLSFKERVRMASPRGQSIKSRQASVGDRRSPSTDITAEGSPTKVQKSWSFNDRTRFRPSLRLKSSQPKPVIDADTALGTDDVYDEKGCQCDVSVEDLTPPLKTVIRAIRIMKFHVAKRKFKETLRPYDVKDVIEQYSAGHLDMLCRIKSLQTRVDQILGKGQITSDKKSREKITAEHETTDDLSMLGRVVKVEKQVQSIESKLDCLLDIYQQVLRKGSASALALASFQIPPFECEQTSDYQSPVDSKDLSGSAQNSGCLSRSTSANISRGLQFILTPNEFSAQTFYALSPTMHSQATQVPISQSDGSAVAATNTIANQINTAPKPAAPTTLQIPPPLPAIKHLPRPETLHPNPAGLQESISDVTTCLVASKENVQVAQSNLTKDRSMRKSFDMGGETLLSVCPMVPKDLGKSLSVQNLIRSTEELNIQLSGSESSGSRGSQDFYPKWRESKLFITDEEVGPEETETDTFDAAPQPAREAAFASDSLRTGRSRSSQSICKAGESTDALSLPHVKLK
In the case of B1, the “IC50 of extracellular TEA (small molecule) on currents of co-expressed KCNQ5 and KCNQ3 (1:1); KCNQ5 homomers 71 mM” value [1] is reported as roughly 200 mM, the “current relative to WT KCNQ5 currents on co-injection with the dominant negative mutant” value [2] is reported as less than 50% and the “IC50 of extracellular TEA (small molecule) on currents of KCNQ5 co-expressed with KCNQ3 (T323Y); KCNQ5 homomers 71 mM” value [3] is reported as roughly 30 mM.
